This note sets out measurements from patent US20220177587A1, “METHODS AND USES OF VARIANT CD80 FUSION PROTEINS AND RELATED CONSTRUCTS” (Alpine Immune Sciences, Inc., priority 2018, published 2022).

Experiment [1] deals with CD28 (human) (UniProt P10747). The experiment in a line: flow cytometry, transfected Expi293F cells.
Experiment [2] concerns the target human PD-L1 (human) (UniProt Q9NZQ7). The experiment can be described thus: flow cytometry, transfected Expi293F cells.
For experiment [3], the target named is human CTLA-4 (human) (UniProt P16410). The experiment can be described thus: flow cytometry, transfected Expi293F cells.
Experiment [4] has as its target human PD-L1 (human) (UniProt Q9NZQ7). The experiment in a line: flow cytometry, MFI on PD-L1 cells over MFI on CD28 cells.
Experiment [5] deals with human CTLA-4 (human) (UniProt P16410). The experiment can be described thus: flow cytometry, CHO cells stably expressing CTLA4.
The target in experiment [6] is human PD-L1 (human) (UniProt Q9NZQ7). The experiment can be described thus: flow cytometry, CHO cells stably expressing PD-L1.
Experiment [7] concerns the target CD28 (human) (UniProt P10747). The experiment in a line: flow cytometry, Jurkat cells (CD28).

Sequence of human CTLA-4 (human) (P16410 36-223): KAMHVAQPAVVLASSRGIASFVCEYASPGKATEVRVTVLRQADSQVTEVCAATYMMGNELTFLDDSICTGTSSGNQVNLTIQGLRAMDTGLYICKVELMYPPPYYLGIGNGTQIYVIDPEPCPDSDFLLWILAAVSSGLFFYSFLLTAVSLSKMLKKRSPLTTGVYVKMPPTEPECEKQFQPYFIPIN
Sequence of human PD-L1 (human) (Q9NZQ7 19-290): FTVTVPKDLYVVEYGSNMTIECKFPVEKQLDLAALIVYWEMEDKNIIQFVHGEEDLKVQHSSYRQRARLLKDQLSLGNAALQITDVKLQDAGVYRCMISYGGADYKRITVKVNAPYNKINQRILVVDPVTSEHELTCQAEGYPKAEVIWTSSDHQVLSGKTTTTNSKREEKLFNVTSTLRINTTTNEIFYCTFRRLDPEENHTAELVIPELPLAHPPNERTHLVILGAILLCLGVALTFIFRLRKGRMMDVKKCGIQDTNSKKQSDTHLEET

B1: CD80 R29D/Y31L/Q33H/K36G/M38I/T41A/M43R/M47T/E81V/L85R/K89N/A91T/F92P/K93V/R94L/I118V/T120S/T130A/K169E/M174T ECD-Fc (Fc fusion)
chain: VIHVTKEVKEVATLSCGHNVSVEELAQTDILWHKEGKIVLAMRSGDTNIWPEYKNRTIFDITNNLSIVILALRPSDEGTYVCVVRKYENDTPVLEHLAEVTLSVKADFPTPSISDFEVPSSNIRRIICSASGGFPEPHLSWLENGEELNAINTTVSQDPETELYAVSSELDFNTTTNHSFMCLIKYGHLRVNQTFNWNTTKQEHFPDN
Regarding B1, the MFI with CD28 (human) [1] was found to be 2740; in the experiment with human PD-L1 (human) [2], 158000; with human CTLA-4 (human) [3], 2490. In addition, the parental ratio with CD28 (human) [1] was found to be 0.06; with human PD-L1 (human) [2], 0.06; in the experiment with human CTLA-4 (human) [3], 0.01.

B2: CD80 R29D/Y31L/Q33H/K36G/M38I/T41A/M43R/M47T/L70Q/E81V/K89N/A91T/F92P/K93V/R94L/I118V/T120S/I127T/T130A ECD-Fc (Fc fusion)
chain: VIHVTKEVKEVATLSCGHNVSVEELAQTDILWHKEGKIVLAMRSGDTNIWPEYKNRTIFDITNNLSIVIQALRPSDEGTYVCVVLKYENDTPVLEHLAEVTLSVKADFPTPSISDFEVPSSNIRRITCSASGGFPEPHLSWLENGEELNAINTTVSQDPETELYAVSSKLDFNMTTNHSFMCLIKYGHLRVNQTFNWNTTKQEHFPDN
In the case of B2, the MFI with CD28 (human) [1] amounted to 2110; in the experiment with human PD-L1 (human) [2], 14200; with human CTLA-4 (human) [3], 2120. Also, the parental ratio with CD28 (human) [1] was determined as 0.05; with human PD-L1 (human) [2], 0.05; with human CTLA-4 (human) [3] it was 0.01.

B3: variant CD80 IgV-Fc E35D/M47L/A71G/D90G (Fc fusion)
chain: VIHVTKEVKEVATLSCGHNVSVEELAQTRIYWQKDKKMVLTMMSGDLNIWPEYKNRTIFDITNNLSIVILGLRPSDEGTYECVVLKYEKGAFKREHLAEVTLSVKAD
Regarding B3, the Ratio of PDL1:CD28 with human PD-L1 (human) [4] amounted to 9.1. Also, the Fold change to WT CD80 with human CTLA-4 (human) [5] is 15.4 fold; with human PD-L1 (human) [6], 277 fold; in the experiment with CD28 (human) [7], 30.3 fold. Also, the values for the MFI at 33.3 nM in the experiment with human CTLA-4 (human) [5], with human PD-L1 (human) [6] and in the experiment with CD28 (human) [7] were 20900 MFI, 12100 MFI and 1330 MFI, respectively.

B4: variant CD80 IgV-Fc H18Y/A26E/V68M/D90G (Fc fusion)
chain: VIHVTKEVKEVATLSCGYNVSVEELEQTRIYWQKEKKMVLTMMSGDMNIWPEYKNRTIFDITNNLSIMILALRPSDEGTYECVVLKYEKGAFKREHLAEVTLSVKAD
With B4, the Ratio of PDL1:CD28 with human PD-L1 (human) [4] is 5.4. Moreover, the Fold change to WT CD80 is 19 fold with human CTLA-4 (human) [5], 295 fold in the experiment with human PD-L1 (human) [6] and 54.5 fold with CD28 (human) [7]. Moreover, the values for the MFI at 33.3 nM with human CTLA-4 (human) [5], in the experiment with human PD-L1 (human) [6] and with CD28 (human) [7] were 25800 MFI, 12800 MFI and 2390 MFI, respectively.

B5: variant CD80 IgV-Fc H18Y/A26E/M47L/D90G (Fc fusion)
chain: VIHVTKEVKEVATLSCGYNVSVEELEQTRIYWQKEKKMVLTMMSGDLNIWPEYKNRTIFDITNNLSIVILALRPSDEGTYECVVLKYEKGAFKREHLAEVTLSVKAD
For the molecule B5, the Ratio of PDL1:CD28 with human PD-L1 (human) [4] is 3.1. For the same molecule, the values for the Fold change to WT CD80 with human CTLA-4 (human) [5], with human PD-L1 (human) [6] and with CD28 (human) [7] were 17.3 fold, 205 fold and 65.1 fold, respectively. Moreover, the figures for the MFI at 33.3 nM with human CTLA-4 (human) [5], with human PD-L1 (human) [6] and in the experiment with CD28 (human) [7] were 23500 MFI, 8930 MFI and 2860 MFI, respectively.

B6: variant CD80 IgV-Fc A26E/E35D/V68M/D90G (Fc fusion)
chain: VIHVTKEVKEVATLSCGHNVSVEELEQTRIYWQKDKKMVLTMMSGDMNIWPEYKNRTIFDITNNLSIMILALRPSDEGTYECVVLKYEKGAFKREHLAEVTLSVKAD
With B6, the Ratio of PDL1:CD28 with human PD-L1 (human) [4] was 4.2. Moreover, the Fold change to WT CD80 with human CTLA-4 (human) [5] turned out to be 10.2 fold; in the experiment with human PD-L1 (human) [6], 160 fold; with CD28 (human) [7], 38.3 fold. Moreover, the MFI at 33.3 nM with human CTLA-4 (human) [5] turned out to be 13900 MFI; with human PD-L1 (human) [6] it was 6990 MFI; with CD28 (human) [7], 1680 MFI.

B7: variant CD80 IgV-Fc H18Y/A26E/M47L/A71G (Fc fusion)
chain: VIHVTKEVKEVATLSCGYNVSVEELEQTRIYWQKEKKMVLTMMSGDLNIWPEYKNRTIFDITNNLSIVILGLRPSDEGTYECVVLKYEKDAFKREHLAEVTLSVKAD
For the molecule B7, the Ratio of PDL1:CD28 with human PD-L1 (human) [4] turned out to be 25.5. Moreover, the Fold change to WT CD80 in the experiment with human CTLA-4 (human) [5] is 16.3 fold; with human PD-L1 (human) [6] it was 357 fold; in the experiment with CD28 (human) [7], 13.9 fold. Also, the figures for the MFI at 33.3 nM with human CTLA-4 (human) [5], in the experiment with human PD-L1 (human) [6] and with CD28 (human) [7] were 22100 MFI, 15600 MFI and 611 MFI, respectively.

B8: variant CD80 IgV-Fc A26E/M47L/A71G/D90G (Fc fusion)
chain: VIHVTKEVKEVATLSCGHNVSVEELEQTRIYWQKEKKMVLTMMSGDLNIWPEYKNRTIFDITNNLSIVILGLRPSDEGTYECVVLKYEKGAFKREHLAEVTLSVKAD
As to B8, in the experiment with human PD-L1 (human) [4], the Ratio of PDL1:CD28 stood at 6.8. Moreover, the Fold change to WT CD80 with human CTLA-4 (human) [5] is 16.2 fold; in the experiment with human PD-L1 (human) [6] it was 303 fold; in the experiment with CD28 (human) [7], 44.5 fold. For the same molecule, the figures for the MFI at 33.3 nM in the experiment with human CTLA-4 (human) [5], with human PD-L1 (human) [6] and in the experiment with CD28 (human) [7] were 22000 MFI, 13200 MFI and 1960 MFI, respectively.

B9: variant CD80 IgV-Fc H18Y/M47L/V68M/D90G (Fc fusion)
chain: VIHVTKEVKEVATLSCGYNVSVEELAQTRIYWQKEKKMVLTMMSGDLNIWPEYKNRTIFDITNNLSIMILALRPSDEGTYECVVLKYEKGAFKREHLAEVTLSVKAD
B9: in the experiment with human PD-L1 (human) [4], the Ratio of PDL1:CD28 was found to be 5.7. The Fold change to WT CD80 with human CTLA-4 (human) [5] turned out to be 14 fold; with human PD-L1 (human) [6], 499 fold; in the experiment with CD28 (human) [7], 86.4 fold. In addition, the MFI at 33.3 nM was 19000 MFI with human CTLA-4 (human) [5], 21800 MFI with human PD-L1 (human) [6] and 3800 MFI with CD28 (human) [7].

B10: variant CD80 IgV-Fc A26E/V68M/A71G/D90G (Fc fusion)
chain: VIHVTKEVKEVATLSCGHNVSVEELEQTRIYWQKEKKMVLTMMSGDMNIWPEYKNRTIFDITNNLSIMILGLRPSDEGTYECVVLKYEKGAFKREHLAEVTLSVKAD
For the molecule B10, in the experiment with human PD-L1 (human) [4], the Ratio of PDL1:CD28 worked out at 2.7. The Fold change to WT CD80 turned out to be 6.4 fold with human CTLA-4 (human) [5], 73.3 fold with human PD-L1 (human) [6] and 27.2 fold in the experiment with CD28 (human) [7]. In addition, the values for the MFI at 33.3 nM with human CTLA-4 (human) [5], with human PD-L1 (human) [6] and in the experiment with CD28 (human) [7] were 8670 MFI, 3200 MFI and 1190 MFI, respectively.

B11: variant CD80 IgV-Fc H18Y/A26E/V68M/A71G (Fc fusion)
chain: VIHVTKEVKEVATLSCGYNVSVEELEQTRIYWQKEKKMVLTMMSGDMNIWPEYKNRTIFDITNNLSIMILGLRPSDEGTYECVVLKYEKDAFKREHLAEVTLSVKAD
As for B11, in the experiment with human PD-L1 (human) [4], the Ratio of PDL1:CD28 amounted to 69.1. In addition, the Fold change to WT CD80 with human CTLA-4 (human) [5] stood at 8.3 fold; in the experiment with human PD-L1 (human) [6] it was 158 fold; in the experiment with CD28 (human) [7], 2.3 fold. In addition, the MFI at 33.3 nM was 11300 MFI with human CTLA-4 (human) [5], 6870 MFI with human PD-L1 (human) [6] and 99.4 MFI with CD28 (human) [7].

B12: variant CD80 IgV-Fc A26E/E35D/M47L/D90G (Fc fusion)
chain: VIHVTKEVKEVATLSCGHNVSVEELEQTRIYWQKDKKMVLTMMSGDLNIWPEYKNRTIFDITNNLSIVILALRPSDEGTYECVVLKYEKGAFKREHLAEVTLSVKAD
Consider B12, for which, in the experiment with human PD-L1 (human) [4], the Ratio of PDL1:CD28 was 6.2. For the same molecule, the Fold change to WT CD80 with human CTLA-4 (human) [5] was 13.4 fold; in the experiment with human PD-L1 (human) [6], 220 fold; with CD28 (human) [7], 35.3 fold. Moreover, the MFI at 33.3 nM with human CTLA-4 (human) [5] was 18200 MFI; with human PD-L1 (human) [6], 9580 MFI; in the experiment with CD28 (human) [7], 1550 MFI.
